Columns and labels:
[1] = target: CCR5 chemokine receptor on the cell surface (UniProt P51681); assay: flow cytometry on mitogen-stimulated PBMC
[2] = target: CCR5 chemokine receptor on the cell surface (UniProt P51681); assay: cell-based or functional assay
[3] = target: CCR5 chemokine receptor on the cell surface (UniProt P51681); assay: flow cytometry on L1.2-CCR5+ cells, PE anti-mouse IgG
[4] = target: CCR5 chemokine receptor on the cell surface (UniProt P51681)
[5] = target: HIV-1JR-FL envelope glycoproteins gp120/gp41 on HeLa-EnvJR-FL+ cells (HIV-1 JR-FL); assay: cell-based or functional assay

Sequence of UniProt P51681 (P51681 whole entry): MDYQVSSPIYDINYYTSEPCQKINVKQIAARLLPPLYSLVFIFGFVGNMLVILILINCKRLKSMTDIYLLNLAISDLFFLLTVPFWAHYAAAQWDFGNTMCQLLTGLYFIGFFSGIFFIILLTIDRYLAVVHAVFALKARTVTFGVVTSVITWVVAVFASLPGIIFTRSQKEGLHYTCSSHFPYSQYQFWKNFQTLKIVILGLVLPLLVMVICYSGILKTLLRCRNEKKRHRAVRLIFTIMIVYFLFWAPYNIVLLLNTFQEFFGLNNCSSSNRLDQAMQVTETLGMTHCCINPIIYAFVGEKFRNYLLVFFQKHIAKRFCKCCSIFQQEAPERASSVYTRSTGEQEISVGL

Substance	% of PBMC stained [1] [%]	fold difference of m.f.i. against PA9 [1] [fold]	% inhibition of entry attained [2] [%]	% inhibition of fusion attained [2] [%]	IC50, inhibition of JR-FL entry (luciferase reporter virus, U87MG-CD4+CCR5+ cells) [2] [µg/mL]	IC50, inhibition of cell-cell fusion (RET assay, PM1 and HeLa-EnvJR-FL+ cells) [2] [µg/mL]	IC50 for calcium influx inhibition (RANTES-induced, L1.2-CCR5+ cells) [2] [µg/mL]	IC50 for calcium influx inhibition, ratio to the IC50 for 2D7 [2] [fold]	% of L1.2-CCR5+ cells stained [3] [%]	IC50 [4] [µg/mL]	K (equal to the IC50) of the median effect fit, inhibition of env-mediated membrane fusion (RET assay, HeLa-EnvJR-FL+ and PM1 cells) [5] [µg/mL]	K (equal to the IC50) of the median effect fit, inhibition of cell-cell fusion (RET assay) [2] [µg/mL]
anti-CCR5 monoclonal antibody PA14	> 20	7	> 90	> 90	0.024	1.7	50	8	> 90	1.58		
CD4-IgG2 (from UniProt P01730 26-204; P01730 26-203) (Fc fusion)											0.31	
T-20 peptide											0.017	
anti-CCR5 mAb 2D7 (antibody)	> 20				0.026	1.6			> 90	1.38		0.36

— patent US20060233798A1
